Laboratory results reported in patent US20180155413A1 (AstraZeneca / MedImmune, published 2018).

B1: FY1/39 BiS4 100/44 (bispecific antibody)
light: DIQMTQSPSSLSASVGDRVTITCRTSQSLSSYLHWYQQKPGKAPKLLIYAASSLQSGVPSRFSGSGSGTDFTLTISSLQPEDFATYYCQQSRTFGQGTKVEIKRTVAAPSVFIFPPSDEQLKSGTASVVCLLNNFYPREAKVQWKVDNALQSGNSQESVTEQDSKDSTYSLSSTLTLSKADYEKHKVYACEVTHQGLSSPVTKSFNRGEC
heavy: not shown
B2: FY1/39 BiS4 43/105 (bispecific antibody)
light: DIQMTQSPSSLSASVGDRVTITCRTSQSLSSYLHWYQQKPGKAPKLLIYAASSLQSGVPSRFSGSGSGTDFTLTISSLQPEDFATYYCQQSRTFGQGTKVEIKRTVAAPSVFIFPPSDEQLKSGTASVVCLLNNFYPREAKVQWKVDNALQSGNSQESVTEQDSKDSTYSLSSTLTLSKADYEKHKVYACEVTHQGLSSPVTKSFNRGEC
heavy: not shown
B3: FBD94 IgG (antibody, V domains shown)
VH: EVQLVESGGGLVQPGRSLRLSCAVSGFIFEDYAINWVRQAPGKGLEWVSIISWDSGRIGYADSVRGRFTISRDNAKNSSFLQMNSLRPEDTAVYYCVKDMLAYYYDGSGIRYNLYGMDVWGQGTTVTVSS
VL: EIVLTQSPATLSLSPGERATLSCRASRSITTFLAWYQQKPGQAPRLLIYDASNRATGVPARFSGSGSGTDFTLTINSLEPDDFAIYYCQQRDHWPPIFGQGTRLEIK

How the values were obtained:
Assay in all cases: cell-based or functional assay
[1] = biological target: HA of A/Wilson Smith N/33 (H1N1) (influenza A virus, UniProt P03454 18-565)
[2] = biological target: HA of A/Beijing/262/95 (H1N1) (influenza A virus)
[3] = biological target: HA of A/Solomon Island/3/2006 (H1N1) (influenza A virus)
[4] = biological target: HA of A/California/07/2009 (H1N1) (influenza A virus)
[5] = biological target: HA of A/Hong Kong/8/68 (H3N2) (influenza A virus)
[6] = biological target: HA of A/Victoria/3/75 (H3N2) (influenza A virus)
[7] = biological target: HA of A/Shan dong/9/93 (H3N2) (influenza A virus)
[8] = biological target: HA of ca A/Panama/2007/99 (H3N2) (influenza A virus)
[9] = biological target: HA of ca B/Beijing/243/97 (victoria) (influenza B virus)
[10] = biological target: HA of B/Hong Kong/330/2001 (victoria) (influenza B virus)
[11] = biological target: HA of B/Malaysia/2506/2004 (victoria) (influenza B virus)
[12] = biological target: HA of B/Ohio/1/2005 (victoria) (influenza B virus)
[13] = biological target: HA of B/Yamanashi/166/98 (yamagata) (influenza B virus)
[14] = biological target: HA of B/Sichuan/379/99 (yamagata) (influenza B virus)
[15] = biological target: HA of B/Florida/4/2006 (yamagata) (influenza B virus)

Chain of HA of A/Wilson Smith N/33 (H1N1) (P03454 18-565 limits assumed): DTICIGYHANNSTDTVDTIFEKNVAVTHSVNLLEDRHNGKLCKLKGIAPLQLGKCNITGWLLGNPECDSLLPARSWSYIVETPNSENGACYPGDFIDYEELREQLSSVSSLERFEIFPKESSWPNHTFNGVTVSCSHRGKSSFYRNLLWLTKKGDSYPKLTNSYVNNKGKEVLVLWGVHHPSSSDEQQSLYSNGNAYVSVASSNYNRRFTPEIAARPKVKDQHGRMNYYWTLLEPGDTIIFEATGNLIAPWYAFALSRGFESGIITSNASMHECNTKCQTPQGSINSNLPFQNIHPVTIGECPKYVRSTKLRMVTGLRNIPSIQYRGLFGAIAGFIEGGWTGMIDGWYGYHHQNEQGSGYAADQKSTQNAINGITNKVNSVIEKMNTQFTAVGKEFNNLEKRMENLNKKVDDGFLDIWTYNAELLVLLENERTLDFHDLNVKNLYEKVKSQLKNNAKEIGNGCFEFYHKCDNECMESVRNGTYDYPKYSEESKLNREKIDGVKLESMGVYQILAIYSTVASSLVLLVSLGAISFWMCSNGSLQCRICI

Binder	Neutralization (IC50) [1] [nM]	Neutralization (IC50) [2] [nM]	Neutralization (IC50) [3] [nM]	Neutralization (IC50) [4] [nM]	Neutralization (IC50) [5] [nM]	Neutralization (IC50) [6] [nM]	Neutralization (IC50) [7] [nM]	Neutralization (IC50) [8] [nM]	Neutralization (IC50) [9] [nM]	Neutralization (IC50) [10] [nM]	Neutralization (IC50) [11] [nM]	Neutralization (IC50) [12] [nM]	Neutralization (IC50) [13] [nM]	Neutralization (IC50) [14] [nM]	Neutralization (IC50) [15] [nM]
B1	10.6	20.2	3.9	8.2	10.6	26.4	12.8	152	5.8	69.3	27.6	5.6	0.9	8.2	3.6
B2	4.3	10.9	2.6	7.1	4	6.5	20.4	52.7	2.6	19.1	12.6	5.4	0.6	3.5	1.6
B3	> 1000	> 1000	> 1000	> 1000	> 1000	> 1000	> 1000	> 1000	0.1	0.1	0.1		0.1	0.2	0.1
